Measurements published in patent US20130164308A1 (RINAT NEUROSCIENCE, published 2013).
Where a chain is given by its changes, count along the chain named. Numbers in names are those of the source. Read-outs that look alike come from different tables or passages of the source.

B1: DF1.1 variant HCDR3-P12A/LCDR3-S6R (antibody, V domains shown)
VH: QVQLVQSGAEVKKPGSSVKVSCKTSGGTFNNVAINWVRQAPGQGLEWMGGIIPGLDTPNYAQKFQGRVTITADKSTTSTYLELSSLRSDDTAVYYCAREMEVSGRWRATEAFEIWGQGTMVTVSS
VL: ETTLTQSPGTLSLSPGERATLSCRASQTISNNFVAWYQQKPGQAPRLLIYGASTRATGIPDRFSGSGSGTDFTLTISSLEPEDFAVYYCQQYGSRPYTFGQGTKVDIK
B2: DF1.1 variant LCDR3-T9R (antibody, V domains shown)
VH: B1 VH with A108P
VL: B1 VL with R95S, T98R
B3: DF1.1 variant HCDR3-W10A/LCDR3-Y3A (antibody, V domains shown)
VH: B1 VH with W106A, A108P
VL: B1 VL with Y92A, R95S
B4: DF1.1 variant HCDR3-E5A (antibody, V domains shown)
VH: B1 VH with E101A, A108P
VL: B1 VL with R95S
B5: DF1.1 variant HCDR3-P12A/LCDR3-Y8A (antibody, V domains shown)
VH: B1 VH
VL: B1 VL with R95S, Y97A
B6: DF1.1 variant HCDR3-R9A (antibody, V domains shown)
VH: B1 VH with R105A, A108P
VL: B1 VL with R95S
B7: DF1.1 variant HCDR3-G8R (antibody, V domains shown)
VH: B1 VH with G104R, A108P
VL: B1 VL with R95S
B8: DF1.1 variant HCDR3-R11A (antibody, V domains shown)
VH: B1 VH with R107A, A108P
VL: B1 VL with R95S
B9: DF1.1 variant HCDR3-A15R/LCDR3-Y3A (antibody, V domains shown)
VH: B1 VH with A108P, A111R
VL: B1 VL with Y92A, R95S
B10: DF1.1 variant LCDR3-G4R (antibody, V domains shown)
VH: B1 VH with A108P
VL: B1 VL with G93R, R95S
B11: DF1.1 variant LCDR3-P7A (antibody, V domains shown)
VH: B1 VH with A108P
VL: B1 VL with R95S, P96A
B12: DF1.1 variant HCDR3-S7R (antibody, V domains shown)
VH: B1 VH with S103R, A108P
VL: B1 VL with R95S
B13: DF1.1 variant LCDR3-Q1A (antibody, V domains shown)
VH: B1 VH with A108P
VL: B1 VL with Q90A, R95S
B14: DF1.1 variant HCDR3-P12A/LCDR3-Y3A (antibody, V domains shown)
VH: B1 VH
VL: B1 VL with Y92A, R95S
B15: DF1.1 variant HCDR3-W10A/LCDR3-Y8A (antibody, V domains shown)
VH: B1 VH with W106A, A108P
VL: B1 VL with R95S, Y97A

Assays:
[1] = biological target: T1, S. aureus alpha-toxin (Staphylococcus aureus, UniProt P09616)
[2] = biological target: T1, S. aureus alpha-toxin; remark: listed apart in the source

Binder	Kd [1] [nM]	Kd [2] [nM]
B1	330	
B2		< 0.14
B3	440	
B4		0.4
B5	37	
B6		0.4
B7		0.4
B8		0.8
B9	280	
B10		< 0.14
B11		< 0.14
B12		0.3
B13		< 0.14
B14	190	
B15	440	
